{"source": "patent US20210147504A1", "key": {"[1]": {"target": "rat CNP receptor (NPR-B) (rat) (UniProt P16067)", "sequence (P16067 17-1047)": "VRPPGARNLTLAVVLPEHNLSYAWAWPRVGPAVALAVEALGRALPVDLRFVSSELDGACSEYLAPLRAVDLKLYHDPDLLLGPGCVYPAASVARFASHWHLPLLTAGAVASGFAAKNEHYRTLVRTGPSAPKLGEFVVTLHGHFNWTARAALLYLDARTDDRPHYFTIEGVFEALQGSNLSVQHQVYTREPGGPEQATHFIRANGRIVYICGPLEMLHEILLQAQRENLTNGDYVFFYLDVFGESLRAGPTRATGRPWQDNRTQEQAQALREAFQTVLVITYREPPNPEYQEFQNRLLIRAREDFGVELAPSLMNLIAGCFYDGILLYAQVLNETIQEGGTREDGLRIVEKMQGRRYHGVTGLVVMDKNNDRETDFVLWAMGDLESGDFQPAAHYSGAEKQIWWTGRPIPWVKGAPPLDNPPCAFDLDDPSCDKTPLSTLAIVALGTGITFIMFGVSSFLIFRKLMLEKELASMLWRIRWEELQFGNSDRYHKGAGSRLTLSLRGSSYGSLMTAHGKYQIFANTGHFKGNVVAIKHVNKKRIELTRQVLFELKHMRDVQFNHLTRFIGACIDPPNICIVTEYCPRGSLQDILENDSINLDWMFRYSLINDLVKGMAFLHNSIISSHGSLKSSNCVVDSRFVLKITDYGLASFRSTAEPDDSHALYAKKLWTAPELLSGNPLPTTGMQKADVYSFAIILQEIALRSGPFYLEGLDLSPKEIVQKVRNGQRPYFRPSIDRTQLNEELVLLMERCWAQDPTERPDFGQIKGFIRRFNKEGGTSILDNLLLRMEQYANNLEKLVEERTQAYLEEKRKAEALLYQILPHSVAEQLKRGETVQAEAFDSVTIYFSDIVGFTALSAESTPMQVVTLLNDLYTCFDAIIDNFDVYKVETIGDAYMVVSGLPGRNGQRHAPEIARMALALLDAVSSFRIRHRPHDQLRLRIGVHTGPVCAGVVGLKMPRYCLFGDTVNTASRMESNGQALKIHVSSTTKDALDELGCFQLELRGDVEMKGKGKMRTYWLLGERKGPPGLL", "experiment": "cell-based or functional assay"}, "[2]": {"target": "rat ANP receptor (NPR-A) (rat) (UniProt P18910)", "sequence (P18910 29-1057)": "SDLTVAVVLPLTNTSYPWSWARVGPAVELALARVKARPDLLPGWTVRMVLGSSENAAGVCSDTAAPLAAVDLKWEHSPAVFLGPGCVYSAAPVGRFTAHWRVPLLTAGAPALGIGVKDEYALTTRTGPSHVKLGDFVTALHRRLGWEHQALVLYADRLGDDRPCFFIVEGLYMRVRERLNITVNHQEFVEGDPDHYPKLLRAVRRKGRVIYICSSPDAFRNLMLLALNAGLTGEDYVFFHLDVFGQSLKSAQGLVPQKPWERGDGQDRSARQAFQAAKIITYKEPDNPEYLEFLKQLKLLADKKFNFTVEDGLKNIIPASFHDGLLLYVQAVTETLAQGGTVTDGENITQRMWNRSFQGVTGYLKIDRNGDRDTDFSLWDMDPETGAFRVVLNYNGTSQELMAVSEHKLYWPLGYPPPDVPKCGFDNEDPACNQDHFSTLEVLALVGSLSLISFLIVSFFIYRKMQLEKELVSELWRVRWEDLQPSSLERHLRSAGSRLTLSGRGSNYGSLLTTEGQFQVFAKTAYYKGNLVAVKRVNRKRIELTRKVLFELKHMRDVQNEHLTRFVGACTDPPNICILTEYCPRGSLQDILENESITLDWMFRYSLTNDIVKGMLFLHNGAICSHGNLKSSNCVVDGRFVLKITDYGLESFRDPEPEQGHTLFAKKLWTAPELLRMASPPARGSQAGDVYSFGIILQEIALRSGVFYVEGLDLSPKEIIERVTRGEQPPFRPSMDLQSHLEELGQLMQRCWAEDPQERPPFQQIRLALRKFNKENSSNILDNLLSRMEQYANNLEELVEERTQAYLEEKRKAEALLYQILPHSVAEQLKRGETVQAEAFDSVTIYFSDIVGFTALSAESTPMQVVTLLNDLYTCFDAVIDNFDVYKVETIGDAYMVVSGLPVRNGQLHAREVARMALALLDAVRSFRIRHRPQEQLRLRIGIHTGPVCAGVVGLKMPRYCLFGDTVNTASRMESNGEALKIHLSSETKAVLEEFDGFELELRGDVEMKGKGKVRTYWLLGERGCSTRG", "experiment": "cell-based or functional assay"}}, "data": [{"binder": "GLSKGCFGLKLDRIGSMSGLGC (peptide, from a related filing)", "note": "[CNP (Bachem, H-1296)]", "values": [{"measurement": "EC50, luminescence signal of rat NPR-B cGMP reporter cell line", "setting": "[1]", "result": 0.024, "unit": "nM"}]}, {"binder": "SLRRSSCFGGRIDRIGAQSGLGCNSFRY (peptide, from a related filing)", "note": "[ANP (Bachem, H-2100)]", "values": [{"measurement": "EC50, fluorescence signal of rat NPR-A cGMP reporter CHO cell line (GCaMP6/CNGA2)", "setting": "[2]", "result": 0.22, "unit": "nM"}]}]}
